± gives the uncertainty stated by the source.
B1: COUP transcription factor 1, residues 83 to 159; numbered along this chain, P10589 (parent)
chain: HIECVVCGDKSSGKHYGQFTCEGCKSFFKRSVRRNLTYTCRANRNCPIDQHHRNQCQYCRLKKCLKVGMRREAVQRG

Variants of: B1
Assay: abundance fitness (aPCA) (normalised: wild type 0, dead -1); higher = more abundant; growth selection in yeast, the domain comes from the species named
Details: Homo sapiens
With HIECVVCGDKSSGKHYGQFTCEGCKSFFKRSVRRNLTYTCRANRNCPIDQHHRNQCQYCRIKKCLKVGMRREAVQRG [L61I] the abundance fitness was -0.163 ± 0.071. Work on HIECVVCGDKSSGKHYGQFTCEGCKSFFKRSVRRNLTYTCRANRNCPIDQHHRNQCQYCRKKKCLKVGMRREAVQRG [L61K] yielded an abundance fitness of -0.78 ± 0.1. HIECVVCGDKSSGKHYGQFTCEGCKSFFKRSVRRNLTYTCRANRNCPIDQHHRNQCQYCRMKKCLKVGMRREAVQRG [L61M] showed an abundance fitness of 0.073 ± 0.042. HIECVVCGDKSSGKHYGQFTCEGCKSFFKRSVRRNLTYTCRANRNCPIDQHHRNQCQYCRNKKCLKVGMRREAVQRG [L61N] showed an abundance fitness of -0.702 ± 0.14. Variant HIECVVCGDKSSGKHYGQFTCEGCKSFFKRSVRRNLTYTCRANRNCPIDQHHRNQCQYCRPKKCLKVGMRREAVQRG [L61P] has an abundance fitness of -0.65 ± 0.088. Variant HIECVVCGDKSSGKHYGQFTCEGCKSFFKRSVRRNLTYTCRANRNCPIDQHHRNQCQYCRQKKCLKVGMRREAVQRG [L61Q] has an abundance fitness of -0.346 ± 0.07. With HIECVVCGDKSSGKHYGQFTCEGCKSFFKRSVRRNLTYTCRANRNCPIDQHHRNQCQYCRRKKCLKVGMRREAVQRG [L61R] the abundance fitness was -0.84 ± 0.062. For HIECVVCGDKSSGKHYGQFTCEGCKSFFKRSVRRNLTYTCRANRNCPIDQHHRNQCQYCRSKKCLKVGMRREAVQRG [L61S], the abundance fitness was -0.691 ± 0.07. Work on HIECVVCGDKSSGKHYGQFTCEGCKSFFKRSVRRNLTYTCRANRNCPIDQHHRNQCQYCRTKKCLKVGMRREAVQRG [L61T] yielded an abundance fitness of -0.771 ± 0.092. For HIECVVCGDKSSGKHYGQFTCEGCKSFFKRSVRRNLTYTCRANRNCPIDQHHRNQCQYCRVKKCLKVGMRREAVQRG [L61V], the abundance fitness was -0.555 ± 0.05. For HIECVVCGDKSSGKHYGQFTCEGCKSFFKRSVRRNLTYTCRANRNCPIDQHHRNQCQYCRWKKCLKVGMRREAVQRG [L61W], the abundance fitness was -0.05 ± 0.041. HIECVVCGDKSSGKHYGQFTCEGCKSFFKRSVRRNLTYTCRANRNCPIDQHHRNQCQYCRYKKCLKVGMRREAVQRG [L61Y] gave an abundance fitness of -0.152 ± 0.068. In the case of HIECVVCGDKSSGKHYGQFTCEGCKSFFKRSVRRNLTYTCRANRNCPIDQHHRNQCQYCRLAKCLKVGMRREAVQRG [K62A], the abundance fitness is reported as 0.044 ± 0.036. For HIECVVCGDKSSGKHYGQFTCEGCKSFFKRSVRRNLTYTCRANRNCPIDQHHRNQCQYCRLCKCLKVGMRREAVQRG [K62C], the abundance fitness was -0.257 ± 0.089. HIECVVCGDKSSGKHYGQFTCEGCKSFFKRSVRRNLTYTCRANRNCPIDQHHRNQCQYCRLDKCLKVGMRREAVQRG [K62D] gave an abundance fitness of 0.053 ± 0.064. Work on HIECVVCGDKSSGKHYGQFTCEGCKSFFKRSVRRNLTYTCRANRNCPIDQHHRNQCQYCRLGKCLKVGMRREAVQRG [K62G] yielded an abundance fitness of -0.143 ± 0.035. For HIECVVCGDKSSGKHYGQFTCEGCKSFFKRSVRRNLTYTCRANRNCPIDQHHRNQCQYCRLHKCLKVGMRREAVQRG [K62H], the abundance fitness was -0.198 ± 0.083. For HIECVVCGDKSSGKHYGQFTCEGCKSFFKRSVRRNLTYTCRANRNCPIDQHHRNQCQYCRLIKCLKVGMRREAVQRG [K62I], the abundance fitness was 0.189 ± 0.068. In the case of HIECVVCGDKSSGKHYGQFTCEGCKSFFKRSVRRNLTYTCRANRNCPIDQHHRNQCQYCRLLKCLKVGMRREAVQRG [K62L], the abundance fitness is reported as -0.015 ± 0.038. For HIECVVCGDKSSGKHYGQFTCEGCKSFFKRSVRRNLTYTCRANRNCPIDQHHRNQCQYCRLMKCLKVGMRREAVQRG [K62M], the abundance fitness was -0.003 ± 0.049. In the case of HIECVVCGDKSSGKHYGQFTCEGCKSFFKRSVRRNLTYTCRANRNCPIDQHHRNQCQYCRLNKCLKVGMRREAVQRG [K62N], the abundance fitness is reported as 0.146 ± 0.063. HIECVVCGDKSSGKHYGQFTCEGCKSFFKRSVRRNLTYTCRANRNCPIDQHHRNQCQYCRLPKCLKVGMRREAVQRG [K62P] showed an abundance fitness of -0.573 ± 0.11. HIECVVCGDKSSGKHYGQFTCEGCKSFFKRSVRRNLTYTCRANRNCPIDQHHRNQCQYCRLQKCLKVGMRREAVQRG [K62Q] gave an abundance fitness of -0.001 ± 0.061. HIECVVCGDKSSGKHYGQFTCEGCKSFFKRSVRRNLTYTCRANRNCPIDQHHRNQCQYCRLRKCLKVGMRREAVQRG [K62R] gave an abundance fitness of -0.073 ± 0.033. Work on HIECVVCGDKSSGKHYGQFTCEGCKSFFKRSVRRNLTYTCRANRNCPIDQHHRNQCQYCRLSKCLKVGMRREAVQRG [K62S] yielded an abundance fitness of 0.011 ± 0.041. HIECVVCGDKSSGKHYGQFTCEGCKSFFKRSVRRNLTYTCRANRNCPIDQHHRNQCQYCRLVKCLKVGMRREAVQRG [K62V] gave an abundance fitness of 0.086 ± 0.037. With HIECVVCGDKSSGKHYGQFTCEGCKSFFKRSVRRNLTYTCRANRNCPIDQHHRNQCQYCRLWKCLKVGMRREAVQRG [K62W] the abundance fitness was -0.162 ± 0.049. For HIECVVCGDKSSGKHYGQFTCEGCKSFFKRSVRRNLTYTCRANRNCPIDQHHRNQCQYCRLYKCLKVGMRREAVQRG [K62Y], the abundance fitness was -0.512 ± 0.16. Variant HIECVVCGDKSSGKHYGQFTCEGCKSFFKRSVRRNLTYTCRANRNCPIDQHHRNQCQYCRLKACLKVGMRREAVQRG [K63A] has an abundance fitness of -0.254 ± 0.045. HIECVVCGDKSSGKHYGQFTCEGCKSFFKRSVRRNLTYTCRANRNCPIDQHHRNQCQYCRLKCCLKVGMRREAVQRG [K63C] gave an abundance fitness of -0.17 ± 0.063. Variant HIECVVCGDKSSGKHYGQFTCEGCKSFFKRSVRRNLTYTCRANRNCPIDQHHRNQCQYCRLKDCLKVGMRREAVQRG [K63D] has an abundance fitness of -0.874 ± 0.14. Variant HIECVVCGDKSSGKHYGQFTCEGCKSFFKRSVRRNLTYTCRANRNCPIDQHHRNQCQYCRLKECLKVGMRREAVQRG [K63E] has an abundance fitness of -0.161 ± 0.044. HIECVVCGDKSSGKHYGQFTCEGCKSFFKRSVRRNLTYTCRANRNCPIDQHHRNQCQYCRLKFCLKVGMRREAVQRG [K63F] gave an abundance fitness of -0.372 ± 0.12. In the case of HIECVVCGDKSSGKHYGQFTCEGCKSFFKRSVRRNLTYTCRANRNCPIDQHHRNQCQYCRLKGCLKVGMRREAVQRG [K63G], the abundance fitness is reported as -0.526 ± 0.05. HIECVVCGDKSSGKHYGQFTCEGCKSFFKRSVRRNLTYTCRANRNCPIDQHHRNQCQYCRLKHCLKVGMRREAVQRG [K63H] showed an abundance fitness of -0.114 ± 0.085. With HIECVVCGDKSSGKHYGQFTCEGCKSFFKRSVRRNLTYTCRANRNCPIDQHHRNQCQYCRLKICLKVGMRREAVQRG [K63I] the abundance fitness was -0.402 ± 0.1.
